The record followed here is PMC4506568, “Targeting a Dynamic Protein–Protein Interaction: Fragment Screening against the Malaria Myosin A Motor Complex” (Chemmedchem, 2014).

Where no end group is shown, it is not given here. 8e = not defined here

Conditions in all cases: both partners purified
In data set [1] the target is T1, Plasmodium falciparum myosin A tail domain interacting protein, residues 61–204 (PfMTIPΔ60) (Plasmodium falciparum, UniProt Q8I4W8 61-204).
T1 construct: source: 15N-labeled for NMR; not shown: His tag, N-terminal, kept
T1 sequence: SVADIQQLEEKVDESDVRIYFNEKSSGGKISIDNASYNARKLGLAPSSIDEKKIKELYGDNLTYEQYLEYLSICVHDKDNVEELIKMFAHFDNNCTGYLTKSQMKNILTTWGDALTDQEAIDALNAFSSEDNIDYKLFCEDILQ
As to the kind of experiment: protein-detected NMR (1H,15N-HSQC); preformed complex of 100 μM 15N-labeled PfMTIPΔ60 with PfmyoA(799–818), buffer B (20 mM MOPS pH 7.0, 50 mM NaCl, 1 mM TCEP), 10 % D2O, 303 K; fragments 8 or 3 added.

For data set [2], the target named is T1, Plasmodium falciparum myosin A tail …. As to the kind of experiment: differential scanning fluorimetry; 5 μM PfMTIPΔ60 with 200 μM peptide in buffer A (20 mM HEPES pH 7.5, 50 mM NaCl, 1 mM TCEP), 10× SYPRO Orange, 15–80 °C. In general terms: In DSF a fluorescence change marks the thermal transition of the protein.
The target is the same in data set [3]. Briefly: ITC; 303 K; cell with about 200 μL of 20 μM PfMTIPΔ60 in buffer A (20 mM HEPES pH 7.5, 50 mM NaCl, 1 mM TCEP); peptide added in 2 μL injections from 250 μM; single site fit; n=1. On the technique in general: ITC needs no label: the signal is the heat of the interaction.

B1: PfmyoA(799–818) (peptide)
peptide: KNIPSLLRVQAHIRKKMVAQ
notes: myosin A (PfmyoA) C-terminal tail, Plasmodium falciparum, residues 799–818; also called myoA tail; myoA tail peptide
As to B1, the binding result in data set [1] is “binds”.

B2: peptide–fragment chimera2 (fragment 8 functionality – glycine spacer – myoA tail from Leu 804) (peptide)
peptide: 8e-GLLRVQAHIRKKMVAQ
modifications: reading uncertain
notes: myosin A (PfmyoA) C-terminal tail, Plasmodium falciparum, PfmyoA(799–818) truncated at its N-terminal end to Leu 804; source: synthetic peptide (Fmoc-based solid-phase peptide synthesis)
For B2, the “Tm of the complex” value in data set [2] was found to be 53.4 °C.

B3: peptide PfmyoA(803–818) (peptide)
peptide: SLLRVQAHIRKKMVAQ
notes: myosin A (PfmyoA) C-terminal tail, Plasmodium falciparum, residues 803–818; also called PfmyoA tail peptide; positive control PfmyoA tail peptide
Regarding B3, the ΔTm in data set [2] turned out to be 15.3 °C.

B4: peptide–fragment chimera3 (fragment 8 functionality – glycine spacer – myoA tail from Ser 803) (peptide)
peptide: 8e-GSLLRVQAHIRKKMVAQ
modifications: reading uncertain
notes: myosin A (PfmyoA) C-terminal tail, Plasmodium falciparum, PfmyoA(799–818) truncated at its N-terminal end to Ser 803; that chimera3 begins at Ser 803 follows from the order of the list (Leu 805, Leu 804, Ser 803); source: synthetic peptide (Fmoc-based solid-phase peptide synthesis)
As for B4, in data set [3], binding was put at a Kd of 52 nM. Besides, the “Tm of the complex” value in data set [2] was 55.8 °C.

B5: peptide–fragment chimera1 (fragment 8 functionality – glycine spacer – myoA tail from Leu 805) (peptide)
peptide: 8e-GLRVQAHIRKKMVAQ
modifications: reading uncertain
notes: myosin A (PfmyoA) C-terminal tail, Plasmodium falciparum, PfmyoA(799–818) truncated at its N-terminal end to Leu 805; called the shortest chimera; source: synthetic peptide (Fmoc-based solid-phase peptide synthesis)
On to B5, for which the “Tm of the complex” value in data set [2] was 47.8 °C.

One may read the ΔTm as the change in melting temperature against a reference sample. A word on the Kd: it is the concentration at which binding is half-saturated. Higher therefore signals a looser complex.
